Experimental findings from the nanobody polyreactivity screen of Harvey et al. (2022) are described below.

The nature of this data set: yeast display, Sf9 membrane polyspecificity reagent, FACS + sequencing; frameworks hold sequencing errors. Put shortly:
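Nanobodies came from a synthetic yeast display library in Saccharomyces cerevisiae BJ5465, induced with galactose for 36–48 hours and stained for 1 hour at 4 °C with 10% biotinylated, detergent-solubilized Sf9 membrane reagent. Cells were enriched on streptavidin microbeads and then FACS-sorted, with low and high (top ~1%) gates set on anti-HA fluorescence for expression and streptavidin fluorescence for reagent binding. Each polyreactivity label reflects the gate a clone came from. Genes were amplified by colony PCR, sequenced by MiSeq 2 × 250 and filtered by CDR length.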
As for “QVQLVESGGGLVQAGGSLRLSCAASGIIFDGNSMGWYRQAPGKEREFVAANSRNGGSTSYADSVKGRFTISRHNAKNTVYLQMHSLKPEDTAVYYCAADVETFWGCRYEYWGQGTQVTVSS”, the “polyreactivity (PSR sort gate)” value is recorded as “low polyreactivity”. Take “QVQLVESGGGLVQAGGSLRLSCAASGIIFDGYAMGWYRQAPGKEREFVAAITSGGGSTSYADSVKGRFTISRDNAKNTVYLQMNSLKPEDTAVYYCAARSNRFYVRQRYAYWGQGTQLTVSS”: the “polyreactivity (PSR sort gate)” value is on record as “high polyreactivity”. “QVQLVESGGGLVQAGGSLRLSCAASGIIFDINAMGWYRQAPGKERELVAAITTSVDSTYYADSVKGRFTISRDNAKNTVYLQMNSLKPEDTAVYYCAVAFVQFTQYYYWGQGSQVTVSS”: the “polyreactivity (PSR sort gate)” value is “low polyreactivity”. As for “QVQLVESGGGLVQAGGSLRLSCAASGIIFDRNTMGWYRQAPGKEREYVAAISRNGGSTSYADSVKGRFTISRDNAKNTVYLQMNSLKPEDTAVYDCAADVETFWGWRYEYWGQGTQVTVSS”, the entry is “low polyreactivity”; as for “QVQLVESGGGLVQAGGSLRLSCAASGIIFDRYAMGWYRQAPGKERELVAAISWSGGRTYYADSVKGRFTISRDNAKNTVYLQMNSLKPEDTAVYYCAAKPSVDLDYWGQGTQVTVSS”, “high polyreactivity”.

On to “QVQLVESGGGLVQAGGSLRLSCAASGIIFDRYAMGWYRQAPGKERELVAAITRSGGRTYYADSVKGRFTISRDNAKNTVYLQMNSLKPEDTAVYYCNAYRSALYPPEYDYWGQGTQVTVSS”, for which the “polyreactivity (PSR sort gate)” value is reported as “high polyreactivity”. For the sequence “QVQLVESGGGLVQAGGSLRLSCAASGIIFDTNAIGWYSQAPGKERELVATITQRGGTTYYADSVKGRFTISRDNAKNTVYLQMNSLKPEDTAVYYCNAGPVRLPYDSWGQGSQVTVSS”, the “polyreactivity (PSR sort gate)” value is “low polyreactivity”. As for “QVQLVESGGGLVQAGGSLRLSCAASGIIFDTYVMGWYRQAPGKERELVAAITRSGGRTRYADSVKGRFTISRDNAKNTVYLQMNSLKPEDTAVYYCAARIPDRQDGYGYWGQGTQVTVSS”, the entry is “high polyreactivity”; as for “QVQLVESGGGLVQAGGSLRLSCAASGIIFDWYAMGWYRQAPGTERELVAAISDSGDTTYYADSVKGRFTISRDNAKNTVYLQMNSLNPEDTAVYYCAARWEYVGYRRRYYRFDYWGQGTQVTVSS”, “high polyreactivity”. Take “QVQLVESGGGLVQAGGSLRLSCAASGIIFEGNVMGWYRQAPGKERELVAAITSDTSTNYADSVKGRFTISRDNAKNTVYIQMNSLKPEDTAVYYCNAVIGTDYYYSGTAEFYYWGQGTQVTVSS”: the “polyreactivity (PSR sort gate)” value is on record as “low polyreactivity”. As to “QVQLVESGGGLVQAGGSLRLSCAASGIIFEGYAMGWYRQAPGKERELVAAISQSGGSTRYADSVKGRFTISRDNAKNTVYLQMNSLKPEDTAVYYCAKLSLSWDGYYQYDYWGQGTQVTVSS”, the “polyreactivity (PSR sort gate)” value is recorded as “low polyreactivity”. For the sequence “QVQLVESGGGLVQAGGSLRLSCAASGIIFESNVMGWYRQAPGKERELVAAISRSGSRTYYADSVKGRFTISRDNAKNTVYLQMNSLKPEDTAVYYCATDSHTADEYEHWGQGTQVTVSS”, the “polyreactivity (PSR sort gate)” value is recorded as “high polyreactivity”. As for “QVQLVESGGGLVQAGGSLRLSCAASGIIFEYYDMGWYRQAPGKERELVAAIDSGGSTYYADSVKGRFTISRDNAKNTVYLQMNSLKPEDTAVYYCAAETVRYEWGESPAALFDYWGQGTQVTVSS”, the “polyreactivity (PSR sort gate)” value is listed as “low polyreactivity”. Consider “QVQLVESGGGLVQAGGSLRLSCAASGIIFFAYAMGWYRQAPGKERELVAAISSSGGRTYYSDSVKGRFTISRDNAKNTVYLQMNSMIPEDTAVYYCTARWHGSFDYWGQGTQVTVSS”, for which the “polyreactivity (PSR sort gate)” value is on record as “low polyreactivity”. As to “QVQLVESGGGLVQAGGSLRLSCAASGIIFFDYAMGWYRQAPGKERELVAAITGSGGRTYYADSVKGRFTISRDNAKNTVYLQMNSLKPEDTAVYYCAAARYYYGGDYWGQGTQVTVST”, the “polyreactivity (PSR sort gate)” value is reported as “high polyreactivity”.

For “QVQLVESGGGLVQAGGSLRLSCAASGIIFFEYVMGWYRQAPGQERELVAAINRSGGRTYYADSVKGRFTISRDNAKNTVYLQMNSLKPEDTAVYYCAAEHYTGSGGYDYWGHGTQVTVSS”, the “polyreactivity (PSR sort gate)” value was “high polyreactivity”.
